Experimental findings from FireProtDB (doi:10.1074/jbc.271.12.6832) are described below.

The conditions of the data set: Streptococcus pneumoniae serotype 4 (strain ATCC BAA-334 / TIGR4); pH 6.9; Thermal; DSC; phosphate 20 mM; transition: 4; reversible: no; whole UniProt chain shown.

Several values for one entry are separate records, joined by “and”; a condition that tells them apart may be missing. Equal values may be shown once.

B1: Autolysin wild type, P06653 (protein)
chain: MEINVSKLRTDLPQVGVQPYRQVHAHSTGNPHSTVQNEADYHWRKDPELGFFSHIVGNGCIMQVGPVDNGAWDVGGGWNAETYAAVELIESHSTKEEFMTDYRLYIELLRNLADEAGLPKTLDTGSLAGIKTHEYCTNNQPNNHSDHVDPYPYLAKWGISREQFKHDIENGLTIETGWQKNDTGYWYVHSDGSYPKDKFEKINGTWYYFDSSGYMLADRWRKHTDGNWYWFDNSGEMATGWKKIADKWYYFNEEGAMKTGWVKYKDTWYYLDAKEGAMVSNAFIQSADGTGWYYLKPDGTLADKPEFTVEPDGLITVK
B1: the “unfolding enthalpy (van 't Hoff)” value was 50 kcal/mol and 71 kcal/mol and 95 kcal/mol.
